Source: patent US20230372536A1, “NANOMATERIAL AND METHODS OF USE THEREOF” (UNIVERSITY OF CONNECTICUT, priority 2020, published 2023)

How the values were obtained:
[1] = test system: hMSCs; assay: Cell proliferation (CCK-8); format: cell-based, human; conditions: for cell proliferation: 3 or 5 days of culture
Description: Cell proliferation. Five groups of samples were added to an untreated 96-well plate for the cell proliferation experiment. For the JBNT group, 3.75 μL of 1 mg mL^−1 JBNTs was added to 596.25 μL distilled water to obtain a 600 μL JBNT solution. The concentration of the solution was 6.25 μg mL^−1. For the TGF-β1 group, 7.5 μL of 10 μg mL^−1 TGF-β1 was dispersed in 592.5 μL distilled water to obtain a 0.125 μg mL^−1 test solution. For the matrilin-3 group, 30 μL of 10 μg mL^−1 matrilin-3 was dispersed in 570 μL distilled water to obtain a 0.5 μg mL^−1 test solution. For the J/T/M NM group, 7.5 μL of 10 μg mL^−1 TGF-β1 was mixed with 30 μL of 10 μg mL^−1 matrilin-3 and pipetted several times. Then, 3.75 μL of 1 mg mL^−1 JBNTs was added to the solution and pipetted. The J/T/M NM solution was diluted with 558.75 μL distilled water. The final concentrations of JBNT, TGF-β1, and matrilin-3 samples were 6.25 μg mL^−1, 0.125 μg mL^−1, and 0.5 μg mL^−1, respectively. As a control group, 600 μL distilled water was used. Each sample group was divided into 6 wells, with each well receiving a 100 μL sample. The three plates were placed into a −80° C. freezer for one hour and then freeze-dried with a lyophilized instrument.
hMSCs were seeded onto these plates. Each well received 100 μL cell suspension containing 5,000 cells. Three plates were incubated at 37° C. for 1 day, 3 days, or 5 days (5% CO2). After incubation, 10 μL CCK-8 solution was added to each well with cells. Then, each plate was incubated at 37° C. for another 2 h. The absorption values of the plates were measured with multi-mode microplate readers at 450 nm. A series of a known number of hMSCs were seeded onto a 96-well plate. After incubating for 4 h, the absorption values of the cells were measured with the CCK-8 assay. A standard curve was generated according to the absorption values and the numbers of hMSCs. Cell proliferation was calculated with the absorption standard curve.

[2] = free TGF-β1; cited from earlier work
[3] = Zeta-potential test; format: physicochemical; conditions: dispersed in H2O
Description: Zeta-potential test. Three groups of samples were prepared. For the matrilin-3 group, 160 μL of 10 μg mL^−1 matrilin-3 was dispersed in 640 μL H2O to obtain an 800 μL test solution. For the mixed matrilin-3/TGF-β1 group, 160 μL of 10 μg mL^−1 matrilin-3 was mixed with 40 μL of 10 μg mL^−1 TGF-β1 and pipetted several times. The mixture was then dispersed in 600 μL H2O to obtain an 800 μL test solution. For the J/T/M NM group, 160 μL of 10 μg mL^−1 matrilin-3 was mixed with 40 μL of 10 μg mL^−1 TGF-β1 and pipetted several times. Then, 20 μL of 1 mg mL^−1 JBNTs was added to the solution and pipetted several times. Finally, the J/T/M NM solution was dispersed in 580 μL H2O to obtain an 800 μL test solution. The zeta-potential values of the three groups of samples were tested with a Zetasizer Nano ZS.

TGF-β1: Recombinant human TGF-β1 (CHO derived, PeproTech), chondrogenic growth factor
cell proliferation [1]: more obvious effects related to the promotion of cell proliferation | cell number (proliferation) ([1]; one day of culture): significantly higher cell numbers | plasma half-life [2]: < 1.67 h

B1: matrilin-3: Recombinant human matrilin-3 protein (R&D Systems), cartilage-specific ECM protein (protein, UniProt O15232 29-486, looked up)
Matrilin-3: DPVARPGFRRLETRGPGGSPGRRPSPAAPDGAPASGTSEPGRARGAGVCKSRPLDLVFIIDSSRSVRPLEFTKVKTFVSRIIDTLDIGPADTRVAVVNYASTVKIEFQLQAYTDKQSLKQAVGRITPLSTGTMSGLAIQTAMDEAFTVEAGAREPSSNIPKVAIIVTDGRPQDQVNEVAARAQASGIELYAVGVDRADMASLKMMASEPLEEHVFYVETYGVIEKLSSRFQETFCALDPCVLGTHQCQHVCISDGEGKHHCECSQGYTLNADKKTCSALDRCALNTHGCEHICVNDRSGSYHCECYEGYTLNEDRKTCSAQDKCALGTHGCQHICVNDRTGSHHCECYEGYTLNADKKTCSVRDKCALGSHGCQHICVSDGAASYHCDCYPGYTLNEDKKTCSATEEARRLVSTEDACGCEATLAFQDKVSSYLQRLNTKLDDILEKLKINEYGQIHR
cell proliferation [1]: moderately increase cell proliferation | zeta-potential [3]: approximately −15 mV
